Assay results published in the domain aggregation screens of Martell et al. (2025).

Experiment: soluble fraction after stress (log2 fold change); higher = more stays soluble; pooled small domains, quantitative proteomics
Conditions: stress: pH 4
Outline: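 Custom libraries of small protein domains were pooled and exposed to pH 4. High-throughput quantitative proteomics then measured the log2 fold change in the amount of each domain still soluble, with higher values meaning more stayed soluble. This soluble-fraction fold change stands for aggregation propensity.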

| Sequence | soluble fraction (log2) |
| --- | --- |
| HMTFNEPSPKEIMDYSLSRGYKVDADAFIDFYRGKAKAYGKEGLWLDGRGRLVKDWRAKLRVVWFKDENKL | -1.09 |
| HMDPRTSSLTPQERKVLELVGGGLTNRQIAAEMFLAEKTVKNYVSSLLAKLGFERRTQAAVFIASPAF | -0.0756 |
| HMYATQLLQLEEMGFFDRAENIRALRATNGNVNAAVERL | -0.114 |
| HMRDKTMLGNVIRTRRKKMNLTLEELSKQVGITSGGLSQIERGLVDPSLSVLRRISRALNLPMNVMFSE | ≥ 0.43 |
| HMKPRVTVVTLGVDDLERAVRFYAEGLGFPTEGIVGREFEFGAVAFFDMQPGLRLALWPRRSLAHDSGLP | -0.328 |
| HMKGSIMIETILKELKKNNKGFNFLLEKFDISEDELMKIINDLIHDKKVFLNSNNKYEIVSD | -0.958 |
| HMTPESSLHSGLGKILHDALTAKIQLTNFEAKFLSDMQSKYDLNGSFSWLSSKQQTTLEKILAKYGR | 0.0478 |
| HMTNYNTEKIIPEEQAGKRLDVVLANIFPEFSRSRLKNWIIDGFILVDGKVLRPRDFVTGGELVSIDVIV | -0.356 |
| HMVEYFDDENLDAFIGRESDSYTEKEIEQFREILYTMNQKEVADWNRSLTIRGINIPNDLKDEMIMMI | -2.71 |
| HMESRETGLPVVIISDGRILQDNLKRRGLDLSWLDKQLAEHGYPDFRDVFLLTVDEAGGVYFVPRE | -0.145 |
| HMAQSEDLMVMAQRILGGPEAQSFFQAEATRQGLAGFLPEPIPDFLQRLERKLSGSVGSATAHAMVAQTMG | -0.279 |
| HMIDIIEYIISEESKGLRADQGIALQNPQYSRSLIQKWIKKGSVLVNNKIIRTKEILLEGDKISITPEENI | -2.29 |
| HMNASITVPDVRNLTVKQASEQLLASGFTPIPYAATKDGVGNDIVYAQDPPPSVLARSGDQITITYNPA | 0.198 |
| HMKDYKSALQELIQSGDKRVISYHTLKETGPSHNREFEAAVKLDGNIILGVGKGKTKKEAEQNAAHEALKK | 0.165 |
| HMDNPLSQQEKRILQLISLGKTNQEIADILYLSNGTVRNYISSILNKLSANNRVEAARIAEEHGW | -0.929 |
| HMPTSPKANFLKELPQEFTRKQAVTIGDKLNIKERTVDNYLAKLEQAGYLVKPKAGYYQKIKS | 0.22 |
| HMRKKDGEAYVLPRPLKKGDSVLIYDIDKKGTVLQPPEKGGKTALIQAGIIQTRVPVSNLRLLE | -0.0646 |
| HMGADGIPGKNGENGETSYVHFAYATSADGKTGFSTTDTVGKTYMGQYADFEKADSEDPTKYRWGKFQGP | ≥ 0.43 |
| HMEDGEVTVPDLRGLTIKEAGTILEKLGLHLSPVGTGLAVRQDVAPGSKVARDTTITVEFEPPDIQVLR | -0.259 |
| HMGKEDLTAAIKKMTLNDKLDIHKIVANFQTNDSEEVITAVKWLMENNYLLKIKNNYTWNTKEK | 0.22 |
| HMSKKMTNEEILNFLKKVLIKHGKISGFIIDEDDNGPSSSVVASRFGGLLNAYKLINYTPER | ≥ 0.43 |
| HMFPELSEEEQIIVSLLQKQPDGLQINTLVVESNIPVNRMSGILFELEMKGIIRMAAGGVYRLL | -0.785 |
| HMAQTEIIRVTKDIKKGDAITADKFEKVKVGAYNLPGNVVKNADELKGKFAAADLVRGDYILTSKLTDNP | 0.0605 |
| HMDDIHTFVYETETPFDPQKLDRYIGSLTAVYGQDMLRYKGILYFAGVDRRVVFQGVHMLAV | -0.353 |
| HMGQVAKPPLKELGADPVTGKPMVLKDGRFGPYVTDGEYNASLRKDDDIETIGVERAAELLQIRREKGP | -0.0291 |
| HMISAEPVGEDLFKVAFPFLGGSTVFEKTIEQFIEEHPSKRIDHIYTVPNPLRLKKADALIFYIITEEK | -1.12 |

| Sequence | soluble fraction (log2) |
| --- | --- |
| HMGQERAVPDVKGQSFDMAQGNISRAGLKAVVTDSVYDSYARPGTVVEQSPIPLAKIKRGGTVYLTLVA | -0.0752 |
| HMISFTDLEHIEKMIENVLYTKTPLNLPPTDAKIRKIEHQIARRYGLNSESFGDEPRRFVVVYPNEERE | 0.0997 |
| HMNMMESNLFAVYDNDDIVKTLRQGAMEIDSLIRLMGKSSAEVLEKLTTMELQGIITRSGNIIALNN | -1.38 |
| HMKPGNFILDLLRTYGQKGTSAQNLMSSSRMFNFSENLIRVTLSRLAARGLIENFERGHYRLAE | 0.0573 |
| HMKTGTTGLIGEIGVVKKALTPEGKVFVHGELWRAVSKTASPEGTLVQVIKINNLVLEVEKV | 0.0324 |
| HMNDTLQEYFEALERLKSNNPINVPKNTKINNDSVALEAGRKRGSIKKSREIFAELIEAINNAS | -0.186 |
| HMGTGSSAERITMLNSILERQIQAMEIQGNPDAPIVNIQKIYTTLQRIVETAGLKDVDQFFMNPLQGQKEM | -0.407 |
| HMPSPSTLAKVDPFLLVTNADSLLMARPDDSELRAAIITAHINLAKTNNSVDHYKEVLKIEPQNALANYN | 0.0418 |
| HMGSQELIQLGERIRQKRKDSHLTQETFAEKAGISVNTVSRIEGGQAAMSIEIFAKLVEILDADANELLG | -1.07 |
| HMQNFLSITSKEKIDIGNFQLISFKFENNLYDYVISGNKSELLIFQEKTIENNNENIEKITSNF | -0.847 |
| HMEATEFYLEDLTGQMYNDVVNDEKYAGKIVFEKEEVQSDGEEAIGQILNQRPAGNMNVRIGTTVTLVVNA | -0.201 |
| HMHRGEIVDGVIASVNPRSILIDIGGKSDALVHPRELERMSDEDLRSLKPGQDVSVYVIETDSDGTMLVSL | -0.86 |
| HMTKEEKEKREKYEKLMKKADELVTAKNHKEAVTVLGQAKAYANPQQTKEIEEKIKAQTAELDKG | 0.24 |
| HMKVRDTQYIIEAAISKNVIRKSKNIYYYGTDIIGRSLEDAIASLNDKKNQDIKMTILQEIES | 0.0993 |
| HMSMNGNMIHATVIWKGRYFLVKMFFPQLTKPKRAEVQAQIEKAYPGSRVASYHITDYKPGEQFLHV | -0.156 |
| HMSVLLKEEGSLQLARHGAAYFIIYSAQEHPNQRRHLKISEEESNRIMEGTPIEEIFLAYSG | -0.972 |
| HMVGVDMTVKEEVGKEGVTFTDLRPAGKVEIGNDIYDAVSNTGAFIQKGEKVKIIKYQAGQVYVEKLV | 0.187 |
| HMKTTKRERARAKLIQLLENEDRPAKEIYAGLGDIGVGSRTVEKVKKELQVTTYRSGGSWYWSLPKP | -0.147 |
| HMSVETSDLLPLIEQVLSLNPDKVKEYQNGKKGLLGFFMGQIKQTAGVAIDVGTLKPLLEDALHKDL | -1.06 |
| HMVVANTAIKSELQNIVANENKQAPLSDQKIVDQLKQAGFDISRRTVVKYRDALGIPTSRNRKR | 0.112 |
| HMSTEAVVMSSSVSVKSSPDKASTDLFVLHEGTKVRTVSELGDWREIVIADGKKGWVEARTIET | 0.151 |
| HMSILYNAVKGTLVSSGALTADSWYKISSFGTASALPALKVGSIFKTPEGAGDAITLASGDSVYPLTLT | 0.021 |
| HMFIPGDSVRVHVKVVEGSNERIQMFEGVVIARQGSGVRENFTVRRISYGVGIERTFPVHSPRL | -0.62 |
| HMITALLPGTVLIREFDGRDYHVTVATDGRFEMDGHKYPSLSAVAKHITGTQWSGPAFFGLN | -0.0323 |
| HMIDVNLVQRGKTLHLRRRVPMRYSSVERREYVSISLKTDSEAEARRKAGAAWDQMIAAWEARLA | -0.12 |
| HMGQISLSVNAIPEKAEVILDGNSIGNTPIRKNTITPGSHMFEIEKKGYAPISYDIYVNPSKAINLDFFM | -0.153 |

| Sequence | soluble fraction (log2) |
| --- | --- |
| HMEPDEIVLDHRKRIENSDAIVLIAPIWNFRMPAILEGWIDKVLAPPWAFKFKKLFGNYGYPVGNLKG | -0.121 |
| HMNVPFGYTIKDGLLVEQPDEKAILDNILTWKKGQMTVAEIAKKTGMETWKIYGILNYWRNK | -0.438 |
| HMDLRAPKPIKEMGEEYIKLYQYLRKGESENIVMSKMNISLDDYDYMRSEIEDKLSLYNMLDLLRKP | 0.0296 |
| HMSKEEAIQAMKEGKKVTHRFFSSDEWMTIENGFLLLEDGVRISLEDFFNFRSDSLWDNGYELYNPH | -0.768 |
| HMKIQEVDYSTFLNMLNEKSIAQVEIQDNQIAFNSNQEGNKQIYVTGRIEEDTELVNRLQAAGVQFSRV | -0.638 |
| HMNDIQIILQEAVARLPKKQQLVFNMKYFDHLKYQEISEILGTSVGGLKASYFQAVKKIENYIINKH | 0.0158 |
| HMVTKTTYAYERLKREIMDGTLGQGEKLVVNAISQRYQVSPMPIREALLKLEQEGLVQSAPHRGAWVHK | 0.0193 |
| HMYSYNKEEVGKRIKSIRQQKGLTQESFGELFGASKGNVATWEKGISLPNASRLREIADLVSITVEELLYG | 0.00486 |
| HMRIAGIDIPDNKRGEVALTYIFGIGRSSSKKILKSAGIDSDKQIGKWTDDESNLVRKLIRDEYTIEGDL | -0.484 |
| HMDASFTYSLETHPAGVLVRVDGLEYETPFSILLPQGVHRLEVAGEERFFYLSETTHQFLEID | -0.714 |
| HMTLKVQLSEISKMVSLSYIAKKYFNKSQSWLSQRINGNTIHNKPAKFTSEELATLQFALKDIGNILNSTV | -0.658 |
| HMEKDEYIFVDIDGAVFNPGVYKLIAGSRVIDAINLAGGLKEKAFTQNLNKARKLVDGEKIYIYLEGDEE | -1.23 |
| HMNINLDINTYTVKELEKLLKLEVPYSDNNVFEKKNLMVKMIQTSTIAETKKEELYIFLDNIYNRLTNNLE | -0.942 |
| HMLMKPQKTRDVLRYLKSIGWVRLRGGQGSHEIWGLPDGSIRAVIPAGHREISAGVLMQLKRAGVDVPTQW | -0.0803 |
| HMSGKGEFDQLLRSGEYVQAFQRANANGNVTLRRQQLLNLARHQAASGVGSGAIESLSTIQRI | 0.104 |
| HMLAQYPGQVFSKEQIYNQVWKEPYYGVEDNVMSLIRRIRKKIEPDPSRPIYILTVWGIGYKFNN | 0.0406 |
| HMSEQSEALRTGLDQLPINQRTALTLFHLHELNQSEVAKIMNISVGAVESLLFRGRQKMKQLLTSD | -0.157 |
| HMKNKFYEEFSDYIFKHTGIHYAEANYYQLDARINKLMKFLETSDENDVLKAIQGGAVKDQRVHQMIVDLA | -1.27 |
| HMIVVMQPGATKEQVQAVIDRVAEFGFQTKLAPGAERMVIGVVGSPLPDTLKEALERLPGVEEVIRVSKR | -0.0989 |
| HMTESFEFTMNDLVQNNLIMGSGAKERRIAVGEALGIGYTNAKQFLSRLNHYGITRKEFDDEIEKVNQN | -0.217 |
| HMKLSIGGTIEKLRRNKGLSHQQLANALGVTPDTVEKWEINAAYPDITLLSPIARLLGTTLDALLMF | -0.828 |
| HMGSFAADVGRMVRLGRAKRGISRRKLAADSGISERYLAQIEGGQGNPSVNVLKAIADAISVPVFELLPH | -0.197 |
| HMLAFDKDDSGAVAEIILVLGRYWMDFSHKKYPAAEGVALRHKGLSHIFTVLRPYLSTPASELIGERLRR | 0.22 |
| HMAGITLHAEEGRVRIRSQSEGLVKVLDAMGREQASWPLRSKGWWFFLTEGWAPGTYFVKTESGETQRFLV | 0.215 |
